From patent US20180044415A1 (AbbVie / Abbott, published 2018)

T1: human DLL3 (immobilized human DLL3 or h293-hDLL3 cells) (human, UniProt Q9NYJ7 27-492, limits assumed)
T1 construct: the sentence says 'immobilized human DLL3 or h293-hDLL3 cells'
T1 sequence: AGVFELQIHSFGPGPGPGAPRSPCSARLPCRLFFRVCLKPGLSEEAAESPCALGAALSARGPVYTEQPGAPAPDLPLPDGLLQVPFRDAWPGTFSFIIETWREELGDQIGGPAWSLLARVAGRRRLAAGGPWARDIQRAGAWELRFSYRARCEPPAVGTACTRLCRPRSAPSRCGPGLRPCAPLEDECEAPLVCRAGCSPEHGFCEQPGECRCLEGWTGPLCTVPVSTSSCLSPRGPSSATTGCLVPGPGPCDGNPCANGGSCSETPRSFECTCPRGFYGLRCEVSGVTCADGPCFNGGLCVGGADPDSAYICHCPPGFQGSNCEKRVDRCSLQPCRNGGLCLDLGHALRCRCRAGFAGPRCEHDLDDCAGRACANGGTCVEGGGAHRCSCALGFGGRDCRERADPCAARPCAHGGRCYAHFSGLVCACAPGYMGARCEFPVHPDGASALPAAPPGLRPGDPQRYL


Biological target: T1, human DLL3 (immobilized human DLL3 or …)
Assay: hybridoma screening on immobilized human DLL3 or on h293-hDLL3 cells

| binding result | Binder |
| --- | --- |
| binds | SC16.123 (antibody, V domains shown, murine mAb; variable regions only) VH: QVALKESGPGILQPSQTLSLTCSFSGFSLSTSGMGVGWIRQPSGKGLEWLAHIWWDDVKRYNPALKSRLTISKDTSSSQVFLKIASVDTADTATYYCARMEDYGSSSYFDFWGHGTTLTVSS VL: QIVLTQSPAIMSASLGERVTMTCTASSSVSSSYLHWYQQKPGSSPKLWIYSTSNLASGVPARFSGSGSGTSYSLTISSMETEDAATYYCHQYHRSPFTFGSGTKLEIK |
| binds | SC16.107 (antibody, V domains shown, murine mAb; variable regions only) VH: EVQLQQSGPELVKPGASVKMSCKASGYTFTNYVMHWVKQKPGQGLEWIGYINPYNDGTKYNEKFKGKATLTSDKSSTTAYMALSSLTSEDSAVYYCAVAYYSNWGFAYWGQGTLVTVSA VL: DIVMTQSHKFMSTSVGDRVSITCKASQDVNTAVGWYQQKPGQSPKLLIYSASYRYTGVPDRFTGSGSGTDFTFTISSVQAEDLAVYYCQQHYSSPYTFGGGTKVEIK |
| binds | SC16.139 (antibody, V domains shown, murine mAb; variable regions only) VH: EVQLQQSGPELVKPGASVKMSCKASGYTFTNYVMHWVKQKPGQGLEWIGYINPYNDGTKYNEKFKGKATLTSDKSSTTAYMALSSLTSEDSAVYYCAVAYYSNWGFAYWGQGTLVTVSA VL: DIVMTQSHKFMSTSVGDRVSITCKASQDVNTAVGWYQQKPGQSPKLLIYSASYRYTGVPDRFTGSGSGTDFTFTISSVQAEDLAVYYCQQHYSSPYTFGGGTKLEIK |
| binds | SC16.122 (antibody, V domains shown, murine mAb; variable regions only) VH: EVQLVESGGGLVKPGGSLKLSCAASGFTFSDYYMFWVRQTPEKRLEWVATISDGGSYTYFPDSVKGRFTISRDNAQNNLYLQMSSLKSEDTAMYYCARAGTLYAMDYWGQGTSVTVSS VL: DIVMTQSQKFMSTSVGDRVSVTCKASQNVGTNVAWYQQKPGQSPKVLIYSASYRYSGVPDRFTGSGSGTDFTLTISNVQSEDLAEFFCQQYNSYPLTFGGGTKLEIK |
| binds | SC16.124 (antibody, V domains shown, murine mAb; variable regions only) VH: EVQLQQSGPELVKPGASVKMSCKASGYTFTSYVMHWVKQKPGQGLEWIGYINPYNDGTKYNEKFKGKATLTSDKSSSTAYMELSSLTSEDSAVYYCARGALYYGNYLGYFDVWGAGTTVTVSS VL: DIQMTQSPASQSASLGESVTITCLASQTIGTWLAWYQQKPGKSPQLLISAATSLADGVPSRFSGSGSGTKFSFKISSLQAEDFVSYYCQQLYSTPWTFGGGTKLEIK |
| binds | SC16.132 (antibody, V domains shown, murine mAb; variable regions only) VH: QVQLKESGPGLVAPSQSLSITCTVSGFSLTDYGVSWIRQPPGKGLEWLGVVWGGGSTYYNSALKSRLSITKDNSKSQVFLKMNSLQTDDTAMYYCAKQRGQYGAYWGQGTLVTVSA VL: DIQMTQSPASQSASLGESVTITCLASQTIGTWLAWYQQKPGKSPQLLIYAATSLADGVPSRFSGSGSGTKFSFKISSLQAEDFVSYYCQQLYSTPWTFGGGTKLEIK |
| binds | SC16.138 (antibody, V domains shown, murine mAb; variable regions only) VH: QVQLKESGPGLVAPSQSLSITCTVSGFSLTDYGVSWIRQPPGKGLEWLGVVWGGGSTYYNSALKSRLSISKDNSKSQVFLKMNSLQTDDTAMYYCAKQRGQYGAYWGQGTLVTVSA VL: DIQMTQSPASQSASLGESVTITCLASQTIGTWLAWYQQKPGKSPQLLIYSATSLADGVPSRFSGSGSGTKFSFKISSLQAEDFVSYYCQQLYSTPWTFGGGTKLEIK |
| binds | SC16.129 (antibody, V domains shown, murine mAb; variable regions only) VH: QVQLKESGPGLVAPSQSLSITCTVSGFSLTDYGVSWIRQPPGKGLEWLGVIWGGGSTYYNSALKSRLSISKDNSKSQVFLELNSLQTDDTAIYYCAKHYGHYAAYWGQGTLVTVSA VL: DIQMTQSPASQSASLGESVTITCLASQTIGTWLAWYQQKPGKSPQLLIYAATSLADGVPSRFSGSGSGTKFSFKISSLQAEDFVSYYCQQLYSTPYTFGGGTKLEIK |
| binds | SC16.110 (antibody, V domains shown, murine mAb; variable regions only) VH: EVQLQQSGPGLVRTGASVKISCKASGYSFTGYYMHWVKQSHGKSLEWIGYISCYNGATTYNQNFKGKATFIVDTSSSTAYMQFNSLTSEDSAVYYCARSDGGHAMDYWGQGTSVTVSS VL: NIVMTQTPKFLLVSAGDRVTITCKASQSVSNDVAWYQQKPGQSPKLLIYYASNRYTGVPDRFTGSGYGTDFTFTISTVQAEDLAVYFCQQDYSSPPTFGGGTKLEIK |
| binds | SC16.117 (antibody, V domains shown, murine mAb; variable regions only) VH: QVQLKESGPGLVAPSQSLSITCTVSGFSLTNYGVHWVRQPPGKGLEWLGVIWAGGITNYNSALMSRLSISEDNSKSQVFLKMNSLQTDDTAMYYCARNLGPYAMDYWGQGTSVTVSS VL: DIQMNQSPSSLSASLGDTITITCHVSQNINVWLSWYQQKPGNIPKLLIQKASNLHTGVPSRFSGSGSGTGFTLTISSLQPEDIATYYCQQGQSYPFTFGSGTKLEIK |
| binds | SC16.131 (antibody, V domains shown, murine mAb; variable regions only) VH: QVQLKESGPGLVAPSQSLSITCTVSGFSLTNYGVHWVRQPPGKGLEWLGVIWAGGITNYNSALMSRLSISEDNSKSQVFLKMNSLQTDDTAMYYCARNLGPYAMDYWGQGTSVTVSS VL: DIQMNQSPSSLSASLGDTITITCHVSQNINVWLSWYQQKPGNIPKLLIQKASNLHTGVPSRFSGSGSGTGFTLTISSLQPEDIATYYCQQGQSYPFTFGSGTKLEIK |
| binds | SC16.111 (antibody, V domains shown, murine mAb; variable regions only) VH: EVQLQQSGPELEKPGASVKISCKASGYSFTGYNMNWVKQSNGKSLEWIGNIDPYYGGSSYKQKFEGKATLTVDKSSSTAYMQLKSLTSEDSAVYYCARGGSNFFDYWGQGTTLTVSS VL: DIQMTQSPASLAASVGETVTITCRASENIYYSLAWYQQKQGKSPQLLIYNANSLEDGVPSRFSGSGSGTQYSMKINSMQPEDTATYFCKQTYDVPLTFGAGTKLELK |
| binds | SC16.130 (antibody, V domains shown, murine mAb; variable regions only) VH: EVQLQQSGPELVKPGASVKMSCKASGYTFTSYVMHWVKQKPGQGLEWIGYINPYNDGTEYNEKFKGKATLTSDKSSSTAYMELSSLTSEDSAVYYCARGVYDGYSYFDYWGQGTTLTVSS VL: DIQLTQSPASLSASVGETVTITCRASGSIHNYLAWYQQKQGKSPQLLVYNAKTLVDGVPSRFSGSGSGTQYSLKINSLQPEDFGYYYCQHFWTTPWTFGGGTKLEIK |
| binds | SC16.113 (antibody, V domains shown, murine mAb; variable regions only) VH: DVKLVESGGGLVKPGGSLKLSCAASGFTFSSYTMSWVRQTPEKRLEWVATISSGGSYPYYPDSVKGRFTISRDNAKNTLYLQMSSLKSEDTAMYYCTRDVYDGYSYWGQGTTLTVSS VL: not shown |
| binds | SC16.115 (antibody, V domains shown, murine mAb; variable regions only) VH: DVKLVESGGGLVKPGGSLKLSCAASGFTFSSYTMSWVRQTPEKRLEWVATISSGGSYPYYPDSVKGRFTISRDNAKNTLYLQMSSLKSEDTAMYYCTRDVYDGYSYWGQGTTLTVSS VL: not shown |
| binds | SC16.114 (antibody, V domains shown, murine mAb; variable regions only) VH: EVQLQQSGAELVKPGASVKLSCTASGFNIKDTYIHWVKQRPEQGLEWIGRIDPANGNTKYDPKFQGKATITPDTSSNTAYLQLSSLTSEDTAVYYCARSWRNYGSSFWYFDVWGAGTTVTVSS VL: QIVLSQSPAILSASPGEKVTMTCRASSSVSYMHWYQQKPGSSPKPWIYATSNLASGVPARFSGSGSGTSYSLTISRVEAEDAATYYCQQWSSNPYTFGGGTKLEIK |
| binds | SC16.118 (antibody, V domains shown, murine mAb; variable regions only) VH: EVQLQQSGPDLVKPGASVKISCKASGYSFTGYYMHWVKQSHGKSLEWIGRVNPNNGGTSYNQKFKGKAILTADKSSSTAYMELRSLTSEDSAVYYCARGSYDYAEGWGQGTLVTVSA VL: DIVLTQSPASLAVSLGQRATISCKASQSVDYDGDSYLTWYQQKPGQPPKLLIYAASNLESGIPARFSGSGSGTDFTLNIHPVEEEDAATYYCQQSNEDPYTFGGGTKLEIK |
| binds | SC16.134 (antibody, V domains shown, murine mAb; variable regions only) VH: EVQLQQSGPDLVKPGASVKISCKASGYSFTGYYMHWVKQSHGKRLEWIGRVNPNNGGTNYNQKFKGKAILTVDKSSSTAYMELRSLTSEDSAVYYCARGSYDNAEGWGQGTLVTVSA VL: DIVLTQSPASLAVSLGQRATISCKASQSVDHAGDSYMNWYQQKPGQPPKLLIYAASNLESGIPARFSGSGSGTDFTLNIHPVEEEDAATYYCQQSNEDPYTFGGGTKLEIK |
| binds | SC16.116 (antibody, V domains shown, murine mAb; variable regions only) VH: QVQLKQSGPGRVQPSQSLSITCTVSGFSLTSNGVHWVRQSPGKGLEWLGVLWSGGSTDYNAAFISRLSISKDNYKSQVFFKMNSLQANDTAIYYCARNNNRYGAMDYWGQGTSVTVSS VL: DIVMTQSPSSLTVTAGEKVTMSCTSSQSLLTSGNQKNYLTWYQQKPGQPPKLLIYWASTRESGVPDRFTGSGSGTDFTLTISSLQAEDLAVYYCQNDYSLTFGAGTKLELK |
| binds | SC16.109 (antibody, V domains shown, murine mAb; variable regions only) VL: QIVLTQSPAIMSASPGEKVTMTCSASSSVSYMYWYQQKPGSSPRLLIYDTSNLASGVPVRFSGSGSGTSFSLTISRMEAEDTATYYCQEWSGNPLTFGDGTKLELK V domain: QIQLVQSGPELKKPGETVKISCKASGYTFTNYGMNWVKQAPGKGLKWMGWINTYTGEPAYADDFKGRFAFSLETSASAAYLQINNLKNEDTATFFCANMRPTRGFAYWGQGTLGTVSA |
| binds | SC16.121 (antibody, V domains shown, murine mAb; variable regions only) VH: EVQLVESGGGLVQPKGSLKLSCAASGFTFNTYAMNWVRQAPGKGLEWVARIRIKSNNYATYYADSVKDRFTISRDDSQNMLYLQMNNLKTEDTAVYYCVRQGYSYDWGPWFAYWGQGTLVTVSA VL: QIVLTQSPAIMSASPGEKVTITCSASSSVSYMHWFQQKPGTSPKLWIYSTSNLASGVPARFSGSGSGTSYSLTISRMEAEDAATYYCQQRSSYPPTFGGGTKLEIK |
